B1: Bacillus cereus VD045 GajA (Gabija protein A), co-expressed with GajB, tag removed (enzyme)
chain: KFSNITIKNFRNFEKVNINLDNKNVIFGMNDIGKTNFLYALRFLLDKEIRKFGFNKSDYHKHDTSKKIEIILTLDLSNYEKDEDTKKLISVVKGARTSANADVFYIALESKYDDKELYGNIILKWGSELDNLIDIPGRGNINALDNVFKVIYINPLVDLDKLFAQNKKYIFEESQGNESDEGILNNIKSLTDQVNQQIGEMTIIKGFQQEITSEYRSLKKEEVSIELKSEMAIKGFFSDIIPYIKKDGDSNYYPTSGDGRRKMLSYSIYNYLAKKKYEDKIVIYLIEEPEISLHRSMQIALSKQLFEQSTYKYFFLSTHSPELLYEMDNTRLIRVHSTEKVVCSSHMYNVEEAYGSVKKKLNKALSSALFAERVLLIEGPSEKILFEKVLDEVEPEYELNGGFLLEVGGTYFNHYVCTLNDLGITHIIKTDNDLKSKKGKKGVYELLGLNRCLNLLGRENLDEITIDIPEDIKGKKKKERLNERKKEIFKQYKNEVGEFLGERIYLSEIDLENDLYSAIGESMKRIFENEDPVHYLQKSKLFNMVELVNNLSTKDCFDVFEHEKFACLKELVGSDRG
notes: GajA (Gabija protein A), Class 2 OLD nuclease, Bacillus cereus VD045, IMG ID 2519684552; codon-optimized synthetic gene; GajA chain of the GajAB crystal structure; The 5xGS linker probably stays on GajA after SENP2 cleavage (surmise); also called BcGajA; source: E. coli BL21(DE3) or BL21(DE3)-RIL, co-expressed with GajB, purified (Ni-NTA, SUMO2 cleavage by hSENP2, SEC); not shown: …

Data set [1] concerns the molecule itself. The data set is described as follows: crystal structure; GajAB co-expressed in E. coli and purified as a complex; hanging drop, 18°C, 100 mM HEPES-NaOH pH 7.5, 2.4% PEG-400, 2.2 M ammonium sulfate; 3.0 Å.
Data set [2] concerns the molecule itself. The data set is described as follows: SEC; 16/600 S200 (Superdex 200); purified recombinant BcGajA alone, BcGajB alone and the co-expressed BcGajAB complex.
The target of data set [3] is B1. As to the kind of experiment: crystal structure; GajAB co-expressed in E. coli and purified as a complex; hanging drop, 18°C, 100 mM HEPES-NaOH pH 7.5, 2.4% PEG-400, 2.2 M ammonium sulfate; 3.0 Å. The conditions noted are these: both partners purified.

The results in this text go back to publication doi:10.1101/2023.05.01.538945, “Structural basis of Gabija anti-phage defense and viral immune evasion” (bioRxiv, 2023).

As for B1, the stoichiometry N (as a rule, the number of molecules, sites or subunits per partner or assembly) in data set [1] stood at 4.

B2: Bacillus cereus VD045 GajA alone, C-terminal 6xHis (enzyme)
chain: KFSNITIKNFRNFEKVNINLDNKNVIFGMNDIGKTNFLYALRFLLDKEIRKFGFNKSDYHKHDTSKKIEIILTLDLSNYEKDEDTKKLISVVKGARTSANADVFYIALESKYDDKELYGNIILKWGSELDNLIDIPGRGNINALDNVFKVIYINPLVDLDKLFAQNKKYIFEESQGNESDEGILNNIKSLTDQVNQQIGEMTIIKGFQQEITSEYRSLKKEEVSIELKSEMAIKGFFSDIIPYIKKDGDSNYYPTSGDGRRKMLSYSIYNYLAKKKYEDKIVIYLIEEPEISLHRSMQIALSKQLFEQSTYKYFFLSTHSPELLYEMDNTRLIRVHSTEKVVCSSHMYNVEEAYGSVKKKLNKALSSALFAERVLLIEGPSEKILFEKVLDEVEPEYELNGGFLLEVGGTYFNHYVCTLNDLGITHIIKTDNDLKSKKGKKGVYELLGLNRCLNLLGRENLDEITIDIPEDIKGKKKKERLNERKKEIFKQYKNEVGEFLGERIYLSEIDLENDLYSAIGESMKRIFENEDPVHYLQKSKLFNMVELVNNLSTKDCFDVFEHEKFACLKELVGSDRG
notes: GajA, Bacillus cereus VD045, IMG ID 2519684552; also called BcGajA; source: E. coli BL21(DE3) or BL21(DE3)-RIL, purified (Ni-NTA, SEC); for the Ni-NTA co-purification co-expressed with Shewanella phage 1/4 Gad1; not shown: 6xHis, C-terminal, kept
For the molecule B2, the “stoichiometry N” value in data set [2] turned out to be 4.

B3: Bacillus cereus VD045 GajB (Gabija protein B), untagged, co-expressed with GajA (enzyme)
chain: SREQIIKDGGNILVTAGAGSGKTTILVSKIEADLKENKTHYSIAAVTFTNKAAKEIEGRLGYSSRGNFIGTNDGFVESEIIRPFIKDAFGNDYPDNFTAEYFDNQFASYDKGLQVLKYQNILGTYSNPKKNFKFQLALDILKKSLVARQYIFSKYFKIFIDEYQDSDKDMHNLFMYLKDQLKIKLFIVGDPKQSIYIWRGAEPENFNGLIENSTDFNKYHLTSNFRCCQDIQNYSNLFNEETRSLIKEKNEVQNVISIADDMPISDILLKLTEEKQVLNIEAELVILVRRRNQAIEIMKELNEEGFNFIFIPQTPLDRATPNATLLKEVIKYVKNDRYSIYDLAAEIVGNLSSREIKEIQKIINELLVPNINQVLINQVLINLFAKLEITLDTREITAFTEVMMTNEFDIAFDTNEYLHKIFTVHSAKGLEFNQVIITASDYNVHYNRDTNEHYVATTRAKDKLIVIMDNKKYSDYIETLMKELKIKNIIKSI
notes: GajB (Gabija protein B), Superfamily 1A helicase, Bacillus cereus VD045, IMG ID 2519684553; codon-optimized synthetic gene; GajB chain of the GajAB crystal structure and of the GajAB-Gad1 cryo-EM structure; also called BcGajB
Regarding B3, in data set [3], the “stoichiometry N” value was 1 GajB per GajA (4:4).
